Drawing on PMC4577447, this text covers ka (apparent first-order association rate constant for 1 molecule.

The target of the experiment is transcription elongation complex. Description: single-molecule fluorescence co-localization.

B1: GreB (natural protein)
chain: MKTPLVTREGYEKLKQELNYLWREERPEVTKKVTWAASLGDRSENADYQYNKKRLREIDRRVRYLTKCLENLKIVDYSPQQEGKVFFGAWVEIENDDGVTHRFRIVGYDEIFGRKDYISIDSPMARALLKKEVGDLAVVNTPAGEASWYVNAIEYVKP
modifications: fluorescent dye label: Cy3 (Figure 5) or Cy3B (Figure 6); position not stated
Regarding B1, the ka (apparent first-order association rate constant at 0.5 nM GreB) was determined as 0.0149 s⁻¹.
